Holding throughout (assay): ITC; Vps4 MIT domain (3 uM in PBS) in the cell, titrated with 19 injections of 10 ul of Vps2/24/46 or Vps20/32/60 (33 uM in PBS) at 2-min intervals; 25°C; ITC200; fits: One Set of Sites or Sequential Binding Sites
For test [1], the target named is Heimdallarchaeota_LC_3 Vps4 MIT domain (Heimdallarchaeota_LC_3).
The target in test [2] is Lokiarchaeum_GC14_75 Vps4 MIT domain (Lokiarchaeum_GC14_75).
Test [3] has as its target Odinarchaeota_LCB_4 Vps4 MIT domain (Odinarchaeota_LCB_4).

Regarding “Heimdallarchaeota_LC_3 Vps2/24/46 (natural protein)”, in test [1], the dH1 (Sequential Binding Sites, site 1) was -1980 kJ/mol and the dH2 (Sequential Binding Sites, site 2) is 3900 kJ/mol. The like results for “Heimdallarchaeota_LC_3 Vps20/32/60 (natural protein)” were, in that order, 11600 kJ/mol and -9670 kJ/mol. On to “Lokiarchaeum_GC14_75 Vps2/24/46 (natural protein)”, for which, in test [2], the dH1 (Sequential Binding Sites, site 1) is -506 kJ/mol and the dH2 (Sequential Binding Sites, site 2) was determined as 1770 kJ/mol. The substance “Lokiarchaeum_GC14_75 Vps20/32/60 (natural protein)” displayed a dH in test [2] of 5940 kJ/mol.

In test [3], “Odinarchaeota_LCB_4 Vps2/24/46 (natural protein)” had a dH of 1640 kJ/mol. Regarding “Odinarchaeota_LCB_4 Vps20/32/60 (natural protein)”, the dH in test [3] turned out to be 1380 kJ/mol.

For the origin of these results see paper PMC7240154.
